Data: patent US6617117

Assays:
[1] = target: T1, GST-SAP1(267-431), P28324
T1 chain: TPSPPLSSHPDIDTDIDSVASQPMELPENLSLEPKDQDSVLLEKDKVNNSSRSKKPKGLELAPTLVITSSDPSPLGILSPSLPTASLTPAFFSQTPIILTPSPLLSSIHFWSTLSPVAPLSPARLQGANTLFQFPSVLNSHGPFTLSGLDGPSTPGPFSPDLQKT

GST-cJun(1-194), P05412 = target: T2, GST-cJun(1-194), P05412
T2 chain: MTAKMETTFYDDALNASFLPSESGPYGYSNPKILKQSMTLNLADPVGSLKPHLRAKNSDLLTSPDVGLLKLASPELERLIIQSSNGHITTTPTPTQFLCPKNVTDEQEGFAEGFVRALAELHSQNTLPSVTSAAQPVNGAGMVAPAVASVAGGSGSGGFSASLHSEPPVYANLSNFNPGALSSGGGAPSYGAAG

[2] = target: MAPKAP-K2 (substrate of Table 1, construct not stated), P49137
Chain of MAPKAP-K2 (substrate of Table 1, construct not stated), P49137 (P49137 46-400): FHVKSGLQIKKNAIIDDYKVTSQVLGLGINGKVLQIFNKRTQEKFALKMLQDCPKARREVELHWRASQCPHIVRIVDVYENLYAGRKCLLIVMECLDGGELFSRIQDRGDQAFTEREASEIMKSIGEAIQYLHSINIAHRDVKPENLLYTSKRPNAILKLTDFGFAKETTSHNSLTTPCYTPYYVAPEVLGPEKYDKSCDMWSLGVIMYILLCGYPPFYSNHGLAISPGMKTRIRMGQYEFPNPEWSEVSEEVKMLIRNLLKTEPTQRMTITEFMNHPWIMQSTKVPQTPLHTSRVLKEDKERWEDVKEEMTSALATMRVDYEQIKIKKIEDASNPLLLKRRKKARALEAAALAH

GST-ATF2(19-96), P15336 = target: T3, GST-ATF2(19-96), P15336
T3 chain: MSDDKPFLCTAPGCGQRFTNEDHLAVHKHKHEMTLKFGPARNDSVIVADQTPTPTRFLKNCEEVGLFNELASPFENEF

[3] = target: GST-Elk1(307-428) [GST: P08515]
[4] = target: GST-MAPKAP-K2(5-400), P49137
Chain of GST-MAPKAP-K2(5-400), P49137 (P49137 5-400): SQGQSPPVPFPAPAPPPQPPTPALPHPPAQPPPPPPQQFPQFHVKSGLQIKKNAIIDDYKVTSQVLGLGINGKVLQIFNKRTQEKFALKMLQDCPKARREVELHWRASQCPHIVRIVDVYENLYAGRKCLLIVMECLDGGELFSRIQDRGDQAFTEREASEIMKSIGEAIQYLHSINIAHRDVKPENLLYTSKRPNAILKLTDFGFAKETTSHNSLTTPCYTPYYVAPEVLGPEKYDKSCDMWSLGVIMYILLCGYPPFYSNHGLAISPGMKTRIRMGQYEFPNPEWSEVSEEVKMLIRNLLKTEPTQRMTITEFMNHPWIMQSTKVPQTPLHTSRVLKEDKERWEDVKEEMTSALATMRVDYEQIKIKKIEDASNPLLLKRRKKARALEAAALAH

[5] = target: GST-SAP2(221-417) [GST: P08515]
[6] = target: GST-MAPKAP-K2(46-400), P49137
Chain of GST-MAPKAP-K2(46-400), P49137 (P49137 46-400): as the sequence (P49137 46-400) above

rat GST-SAPK3, Q63538 = target: T4, rat GST-SAPK3, Q63538
T4 chain: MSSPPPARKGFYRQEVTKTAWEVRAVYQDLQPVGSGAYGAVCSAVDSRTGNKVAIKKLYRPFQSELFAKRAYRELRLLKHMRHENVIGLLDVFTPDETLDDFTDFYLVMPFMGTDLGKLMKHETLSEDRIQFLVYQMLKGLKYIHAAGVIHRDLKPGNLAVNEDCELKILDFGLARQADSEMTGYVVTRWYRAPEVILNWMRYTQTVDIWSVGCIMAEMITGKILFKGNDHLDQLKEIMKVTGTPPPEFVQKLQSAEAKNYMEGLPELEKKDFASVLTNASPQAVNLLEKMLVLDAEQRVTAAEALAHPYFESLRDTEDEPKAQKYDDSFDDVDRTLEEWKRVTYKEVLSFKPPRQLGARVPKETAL

[7] = target: T5, MalE-Mpk2, the Xenopus homologue of SAPK2a, P47812
T5 chain: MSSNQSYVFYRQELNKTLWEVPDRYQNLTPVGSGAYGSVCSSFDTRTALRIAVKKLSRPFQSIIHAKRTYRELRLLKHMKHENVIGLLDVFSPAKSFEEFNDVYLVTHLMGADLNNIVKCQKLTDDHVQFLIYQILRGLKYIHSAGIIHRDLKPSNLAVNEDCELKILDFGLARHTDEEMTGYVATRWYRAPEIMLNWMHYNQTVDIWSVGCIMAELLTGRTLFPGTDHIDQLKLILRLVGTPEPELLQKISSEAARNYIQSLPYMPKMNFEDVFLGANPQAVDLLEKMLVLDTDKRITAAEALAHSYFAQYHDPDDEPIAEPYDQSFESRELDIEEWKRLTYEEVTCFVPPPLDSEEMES

human GST-SAPK4 = target: T6, human GST-SAPK4
T6 chain: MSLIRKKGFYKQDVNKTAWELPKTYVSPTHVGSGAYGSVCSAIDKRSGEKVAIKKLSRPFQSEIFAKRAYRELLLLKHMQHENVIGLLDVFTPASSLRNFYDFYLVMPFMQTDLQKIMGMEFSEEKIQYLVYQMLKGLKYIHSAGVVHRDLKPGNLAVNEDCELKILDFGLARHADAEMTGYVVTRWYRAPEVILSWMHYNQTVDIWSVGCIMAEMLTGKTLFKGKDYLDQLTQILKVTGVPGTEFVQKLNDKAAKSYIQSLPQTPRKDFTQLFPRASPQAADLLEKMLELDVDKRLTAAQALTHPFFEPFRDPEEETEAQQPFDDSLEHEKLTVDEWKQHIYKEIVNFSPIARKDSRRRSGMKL

Chain of GST-MAPKAP-K3, Q16644 (Q16644 whole entry, looked up): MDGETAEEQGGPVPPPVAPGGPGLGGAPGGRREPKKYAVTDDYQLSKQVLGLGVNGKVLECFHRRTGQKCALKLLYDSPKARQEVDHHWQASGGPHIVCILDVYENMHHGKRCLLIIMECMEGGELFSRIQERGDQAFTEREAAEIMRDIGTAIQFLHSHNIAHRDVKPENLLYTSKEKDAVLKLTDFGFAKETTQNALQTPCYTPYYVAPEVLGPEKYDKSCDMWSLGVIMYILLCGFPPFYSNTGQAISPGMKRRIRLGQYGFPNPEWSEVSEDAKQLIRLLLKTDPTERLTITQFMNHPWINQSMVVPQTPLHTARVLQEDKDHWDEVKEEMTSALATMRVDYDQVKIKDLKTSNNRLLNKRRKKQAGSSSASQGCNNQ

B1: MalE-Mpk2, the Xenopus homologue of SAPK2a (protein)
chain: MSSNQSYVFYRQELNKTLWEVPDRYQNLTPVGSGAYGSVCSSFDTRTALRIAVKKLSRPFQSIIHAKRTYRELRLLKHMKHENVIGLLDVFSPAKSFEEFNDVYLVTHLMGADLNNIVKCQKLTDDHVQFLIYQILRGLKYIHSAGIIHRDLKPSNLAVNEDCELKILDFGLARHTDEEMTGYVATRWYRAPEIMLNWMHYNQTVDIWSVGCIMAELLTGRTLFPGTDHIDQLKLILRLVGTPEPELLQKISSEAARNYIQSLPYMPKMNFEDVFLGANPQAVDLLEKMLVLDTDKRITAAEALAHSYFAQYHDPDDEPIAEPYDQSFESRELDIEEWKRLTYEEVTCFVPPPLDSEEMES
With B1 the rate of phosphorylation of substrate (1 µM) relative to MBP (% of rate with MBP) (GST-MAPKAP-K3, Q16644) was 87, the rate of phosphorylation of substrate (1 µM) relative to MBP (% of rate with MBP) [1] was 25 and the rate of phosphorylation of substrate (1 µM) relative to MBP (relative to MBP (=100)) [1] was 55. For the same protein, the rate of phosphorylation of substrate (1 µM) relative to MBP (% of rate with MBP) (GST-cJun(1-194), P05412) was 4, the rate of phosphorylation of substrate (1 µM) relative to MBP (relative to MBP (=100)) (GST-cJun(1-194), P05412) was 2 and the rate of phosphorylation of substrate (1 µM) relative to MBP (% of rate with MBP) [2] was 90. The “phosphorylation sites on ATF2 (32P, mutants, phosphoamino acid analysis)” value (GST-ATF2(19-96), P15336) was “SAPK2 and SAPK3 phosphorylate ATF2 at Thr69 and Thr-71, and that only SAPK3 phosphorylates Ser-90”, the rate of phosphorylation of substrate (1 µM) relative to MBP (% of rate with MBP) (GST-ATF2(19-96), P15336) was 40 and the rate of phosphorylation of substrate (1 µM) relative to MBP (relative to MBP (=100)) (GST-ATF2(19-96), P15336) was 86. The rate of phosphorylation of substrate (1 µM) relative to MBP (% of rate with MBP) [3] was 90 and the rate of phosphorylation of substrate (1 µM) relative to MBP (relative to MBP (=100)) [3] was 122.

B2: human GST-SAPK4 (protein)
chain: MSLIRKKGFYKQDVNKTAWELPKTYVSPTHVGSGAYGSVCSAIDKRSGEKVAIKKLSRPFQSEIFAKRAYRELLLLKHMQHENVIGLLDVFTPASSLRNFYDFYLVMPFMQTDLQKIMGMEFSEEKIQYLVYQMLKGLKYIHSAGVVHRDLKPGNLAVNEDCELKILDFGLARHADAEMTGYVVTRWYRAPEVILSWMHYNQTVDIWSVGCIMAEMLTGKTLFKGKDYLDQLTQILKVTGVPGTEFVQKLNDKAAKSYIQSLPQTPRKDFTQLFPRASPQAADLLEKMLELDVDKRLTAAQALTHPFFEPFRDPEEETEAQQPFDDSLEHEKLTVDEWKQHIYKEIVNFSPIARKDSRRRSGMKL
For B2, the “activation of MAPKAP-K3 (initial rate and half-time for maximal activation)” value (GST-MAPKAP-K3, Q16644) was 20 times slower, the rate of phosphorylation of substrate (1 µM) relative to MBP (% of rate with MBP) (GST-MAPKAP-K3, Q16644) was 18 and the “activation of MAPKAP-K2 (initial rate and half-time for maximal activation)” value [4] was 20 times slower. It also gave a rate of phosphorylation of substrate (1 µM) relative to MBP (% of rate with MBP) [1] of 62, a rate of phosphorylation of substrate (1 µM) relative to MBP (% of rate with MBP) [5] of 8 and a rate of phosphorylation of substrate (1 µM) relative to MBP (% of rate with MBP) (GST-cJun(1-194), P05412) of 6. For the same protein, the rate of phosphorylation of substrate (1 µM) relative to MBP (% of rate with MBP) [2] was 28 and the rate of phosphorylation of substrate (1 µM) relative to MBP (% of rate with MBP) [3] was 175.

B3: rat GST-SAPK3 (protein)
chain: MSSPPPARKGFYRQEVTKTAWEVRAVYQDLQPVGSGAYGAVCSAVDSRTGNKVAIKKLYRPFQSELFAKRAYRELRLLKHMRHENVIGLLDVFTPDETLDDFTDFYLVMPFMGTDLGKLMKHETLSEDRIQFLVYQMLKGLKYIHAAGVIHRDLKPGNLAVNEDCELKILDFGLARQADSEMTGYVVTRWYRAPEVILNWMRYTQTVDIWSVGCIMAEMITGKILFKGNDHLDQLKEIMKVTGTPPPEFVQKLQSAEAKNYMEGLPELEKKDFASVLTNASPQAVNLLEKMLVLDAEQRVTAAEALAHPYFESLRDTEDEPKAQKYDDSFDDVDRTLEEWKRVTYKEVLSFKPPRQLGARVPKETAL
For B3, the “activation of MAPKAP-K3 (initial rate and half time for maximal activation)” value (GST-MAPKAP-K3, Q16644) was 20 times slower, the rate of phosphorylation of substrate (1 µM) relative to MBP (% of rate with MBP) (GST-MAPKAP-K3, Q16644) was 20 and the “activation of MAPKAP-K2 (initial rate and half time for maximal activation)” value [6] was 20 times slower. It also gave a rate of phosphorylation of substrate (1 µM) relative to MBP (relative to MBP (=100)) [1] of 108, a rate of phosphorylation of substrate (1 µM) relative to MBP (relative to MBP (=100)) [5] of 20 and a rate of phosphorylation of substrate (1 µM) relative to MBP (relative to MBP (=100)) (GST-cJun(1-194), P05412) of 2. The rate of phosphorylation of substrate (1 µM) relative to MBP (% of rate with MBP) [2] was 25, the “phosphorylation sites on ATF2 (32P, mutants, phosphoamino acid analysis)” value (GST-ATF2(19-96), P15336) was “SAPK2 and SAPK3 phosphorylate ATF2 at Thr69 and Thr-71, and that only SAPK3 phosphorylates Ser-90” and the rate of phosphorylation of substrate (1 µM) relative to MBP (relative to MBP (=100)) (GST-ATF2(19-96), P15336) was 107. For the same protein, the rate of phosphorylation of substrate (1 µM) relative to MBP (relative to MBP (=100)) [3] was 181.

B4: human GST-SAPK2b (protein)
chain: MSGPRAGFYRQELNKTVWEVPQRLQGLRPVGSGAYGSVCSAYDARLRQKVAVKKLSRPFQSLIHARRTYRELRLLKHLKHENVIGLLDVFTPATSIEDFSEVYLVTTLMGADLNNIVKCQALSDEHVQFLVYQLLRGLKYIHSAGIIHRDLKPSNVAVNEDCELRILDFGLARQADEEMTGYVATRWYRAPEIMLNWMHYNQTVDIWSVGCIMAELLQGKALFPGSDYIDQLKRIMEVVGTPSPEVLAKISSEHARTYIQSLPPMPQKDLSSIFRGANPLAIDLLGRMLVLDSDQRVSAAEALAHAYFSQYHDPEDEPEAEPYDESVEAKERTLEEWKELTYQEVLSFKPPEPPKPPGSLEIEQ
With B4 the rate of phosphorylation of substrate (1 µM) relative to MBP (% of rate with MBP) (GST-MAPKAP-K3, Q16644) was 66, the rate of phosphorylation of substrate (1 µM) relative to MBP (% of rate with MBP) [1] was 27 and the rate of phosphorylation of substrate (1 µM) relative to MBP (% of rate with MBP) [5] was 18. The rate of phosphorylation of substrate (1 µM) relative to MBP (% of rate with MBP) (GST-cJun(1-194), P05412) was 7, the rate of phosphorylation of substrate (1 µM) relative to MBP (% of rate with MBP) [2] was 83 and the rate of phosphorylation of substrate (1 µM) relative to MBP (% of rate with MBP) (GST-ATF2(19-96), P15336) was 62. For the same protein, the rate of phosphorylation of substrate (1 µM) relative to MBP (% of rate with MBP) [3] was 136.

B5: SKK3 purified from rabbit skeletal muscle (protein)
chain: MSQSKGKKRNPGLKIPKEAFEQPQTSSTPPRDLDSKACISIGNQNFEVKADDLEPIMELGRGAYGVVEKMRHVPSGQIMAVKRIRATVNSQEQKRLLMDLDISMRTVDCPFTVTFYGALFREGDVWICMELMDTSLDKFYKQVIDKGQTIPEDILGKIAVSIVKALEHLHSKLSVIHRDVKPSNVLINTLGQVKMCDFGISGYLVDSVAKTIDAGCKPYMAPERINPELNQKGYSVKSDIWSLGITMIELAILRFPYDSWGTPFQQLKQVVEEPSPQLPADKFSAEFVDFTSQCLKKNSKERPTYPELMQHPFFTVHESKATDVASFVKLILGD
For B5, the “activation of SAPK3 (MBP kinase activity) in vitro” value (rat GST-SAPK3, Q63538) was “SAPK3 was activated in vitro by a highly purified preparation of SKK3 from skeletal muscle”, the “32P phosphorylation, phosphoamino acid analysis” value (GST-SAPK4(D168A)) was “the inactive SAPK4 mutant could only be phosphorylated on tyrosine and not on threonine” and the “activation of SAPK2 (MBP kinase activity) in vitro” value [7] was “The rate of activation of SAPK3 by SKK3 was similar to that of SAPK2”. For the same protein, the “activation of SAPK4 (MBP kinase activity) in vitro” value (human GST-SAPK4) was “SAPK4 was activated in vitro by a highly purified preparation of SKK3 from skeletal muscle”, the “phosphorylation stoichiometry at plateau” value (human GST-SAPK4) was “reached a plateau at ˜1.6 mol/mol subunit” and the “rate of activation compared with SAPK2a” value (human GST-SAPK4) was “occurred two- to three-fold more slowly than that of SAPK2a”.
